The values below are quoted from earlier work in article PMC3423339.

This data set concerns the target Alk1 (Homo sapiens) (UniProt P37023).
UniProt P37023, sequence (P37023 22-118): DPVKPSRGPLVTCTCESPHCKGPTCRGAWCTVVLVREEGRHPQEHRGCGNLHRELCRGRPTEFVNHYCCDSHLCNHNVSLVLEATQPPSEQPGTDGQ

Turning to BMP9 (from UniProt Q9UK05), the Kd – broadly, the equilibrium constant for the complex coming apart – is 1 pM.
